B1: Hairpin Ribozyme (parent)
chain: GUCCUCUUUCACGUGCGCGUGAAAGAGAGAAGUGAACCAGAGAAACACACGUUGUGGUAUAUUACCUGGUA

Variants of B1 are the subject of this data set. Put plainly: self-cleavage, relative activity (ratio to wild type); higher = more cleavage; co-transcriptional.
On to GUCCUCUUUGACGUGCGCGUGAAAGAGAGAAGUGAACCAGAGAAAAACACGUUGUGGUAUAUUACCUGGUA [C10G C46A], for which the self-cleavage was found to be 0.106.
The result for GUCCUCUUUGACGUGCGCGUGAAAGAGAGAAGUGAACCAGAGGAACACACGUUGUGGUAUAUUACCUGGUA [C10G A43G] reads 0.175; that for GUCCUCUUUGACGUGCGCGUGAAAGAGAGAAGUGAACCAGAGAAACACACGUUGUGGUAAAUUACCUGGUA [C10G U60A], 0.608; that for GUCCUCUUUGACGUGCGCGUGAAAGAGGGAAGUGAACCAGAGAAACACACGUUGUGGUAUAUUACCUGGUA [C10G A28G], 0.954.
GUCCUCUUUGACGUGCGCGUGAAAGAGUGAAGUGAACCAGAGAAACACACGUUGUGGUAUAUUACCUGGUA [C10G A28U]: the self-cleavage came to 0.586.
Regarding GUCCUCUUUGACGUGCGCGUGAUAGAGAGAAGUGAACCAGAGAAACACACGUUGUGGUAUAUUACCUGGUA [C10G A23U], the self-cleavage is 0.656.
As to GUCCUCUUUGACGUGCGCGUGAAAGAGAAAAGUGAACCAGAGAAACACACGUUGUGGUAUAUUACCUGGUA [C10G G29A], the self-cleavage came out at 0.0932.
On to GUCCUCUUUGACGUGCGCGUGAAAGAGACAAGUGAACCAGAGAAACACACGUUGUGGUAUAUUACCUGGUA [C10G G29C], for which the self-cleavage came to 0.106.
Consider GUCCUCUUUGACGUGCGCGUGAAAGAGAGAAGUUAACCAGAGAAACACACGUUGUGGUAUAUUACCUGGUA [C10G G34U], for which the self-cleavage turned out to be 1.06.
In the case of GUCCUCUUUGACGUGCGCGUGAAAGAGAGAAGUGAACCUGAGAAACACACGUUGUGGUAUAUUACCUGGUA [C10G A39U], the self-cleavage worked out at 0.273.
Next, GUCCUCUUUAACGUGCGCGUGAAAGAGAGAAGUGAACCAGAGAAACACACGUUGAGGUAUAUUACCUGGUA [C10A U55A]: 0.23; GUCCUCUUUGACGUGCGCGUGAAAGAGAGAAGUGAACCAGAGAAACACACGUUGUGGUAUAUUACGUGGUA [C10G C66G]: 0.189; GUCCUCUUUGACGUGCGCGUGAAAGAGAGAAGUGAACCAGAGAAACACACGUUGUGGUAUAUUACUUGGUA [C10G C66U]: 0.347.
Turning to GUCCUCUUUAACGUGCGCGUGAAAGAGAUAAGUGAACCAGAGAAACACACGUUGUGGUAUAUUACCUGGUA [C10A G29U], the self-cleavage came to 0.0922.
With GUCCUCUUUAACGUGCGCGUGAAAGAGACAAGUGAACCAGAGAAACACACGUUGUGGUAUAUUACCUGGUA [C10A G29C], the self-cleavage is 0.16.
As for GUCCUCUUUGACGUGCGCGUGAAAGAGAGAAGUGAACCAGAGAAACACAAGUUGUGGUAUAUUACCUGGUA [C10G C50A], the self-cleavage was determined as 0.198.
Next, GUCCUCUUUGACGUGCGCGUGUAAGAGAGAAGUGAACCAGAGAAACACACGUUGUGGUAUAUUACCUGGUA [C10G A22U]: 0.661; GUCCUCUUUGACGUGCGCGUGAAAGAGAGAAGUGAACCAGAGAAACACACGUUGUGGUUUAUUACCUGGUA [C10G A59U]: 0.16.
Turning to GUCCUCUUUAACGUGCGCGUGAAAGAGAGAAGCGAACCAGAGAAACACACGUUGUGGUAUAUUACCUGGUA [C10A U33C], the self-cleavage was determined as 0.174.
The result for GUCCUCUUUGACGUGAGCGUGAAAGAGAGAAGUGAACCAGAGAAACACACGUUGUGGUAUAUUACCUGGUA [C10G C16A] reads 0.555; that for GUCCUCUUUGACGUGUGCGUGAAAGAGAGAAGUGAACCAGAGAAACACACGUUGUGGUAUAUUACCUGGUA [C10G C16U], 0.735; that for GUCCUCUUUAACGUGCGCGUGAAAGAGAGAAGUGAACCAGAGAAACACACGUUGUGGUAUAUUACCUGAUA [C10A G69A], 0.317.
Take GUCCUCUUUAACGUGCGCGUGAAAGAGAGAAGUGAACCAGAGAAACACACGUUGUGGUAUAUUACCUGCUA [C10A G69C]: the self-cleavage was determined as 0.241.
On to GUCCUCUUUUACGUGCGCGUGCAAGAGAGAAGUGAACCAGAGAAACACACGUUGUGGUAUAUUACCUGGUA [C10U A22C], for which the self-cleavage is 0.631.
On to GUCCUCUUUAACGUGCGCGGGAAAGAGAGAAGUGAACCAGAGAAACACACGUUGUGGUAUAUUACCUGGUA [C10A U20G], for which the self-cleavage was 0.663.
GUCCUCUUUGACGUGCGCGUGAAAGAGAGAAGUGAACCAGAGAAACACACGUUGUGGUAUAUUACCCGGUA [C10G U67C]: the self-cleavage was 0.172.
The result for GUCCUCUUUGACGUGCGCGUGAAAGAGAGAAGUGAACCAGAGAAACACACGUUGUGGUAUAUUACCAGGUA [C10G U67A] reads 0.191; that for GUCCUCUUUGACGUGCGCGUGAAAGAGAGAAGUGAACCAGAGAAACACACGUUGUGGUAUAUUAGCUGGUA [C10G C65G], 0.246.
In the case of GUCCUCUUUGACGUGCGCGUGAAAGAGAGAAGUGAACCAGAGAAACACACGUUGUAGUAUAUUACCUGGUA [C10G G56A], the self-cleavage was determined as 0.156.
Turning to GUCCUCUUUGACGUGCGCGUGAAAGAGAGAAGUGAACCAGAGAAACACACGUUCUGGUAUAUUACCUGGUA [C10G G54C], the self-cleavage was 0.193.
As to GUCCUCUUUGACGUGCGCGUCAAAGAGAGAAGUGAACCAGAGAAACACACGUUGUGGUAUAUUACCUGGUA [C10G G21C], the self-cleavage stood at 0.93.
Take GUCCUCUUUGACGUGCGCGUAAAAGAGAGAAGUGAACCAGAGAAACACACGUUGUGGUAUAUUACCUGGUA [C10G G21A]: the self-cleavage came to 0.704.
The result for GUCCUCUUUGACGUGCGCGUUAAAGAGAGAAGUGAACCAGAGAAACACACGUUGUGGUAUAUUACCUGGUA [C10G G21U] reads 0.872; that for GUCCUCUUUGACGUGCGCGUGAAAGACAGAAGUGAACCAGAGAAACACACGUUGUGGUAUAUUACCUGGUA [C10G G27C], 0.147.
Take GUCCUCUUUGACGUGCGCGUGAAAGAAAGAAGUGAACCAGAGAAACACACGUUGUGGUAUAUUACCUGGUA [C10G G27A]: the self-cleavage is 0.405.
As to GUCCUCUUUGACGUGCGCGUGAAAGAGAGAAGUGAGCCAGAGAAACACACGUUGUGGUAUAUUACCUGGUA [C10G A36G], the self-cleavage amounted to 0.778.
GUCCUCUUUAACGUGCGCGUGAAAGAGAGAAGUGAACCAGAGAAACACACGUUGUGGUAUAUAACCUGGUA [C10A U63A]: the self-cleavage worked out at 0.118.
Next, GUCCUCUUUGACGUGCGCGUGAAAGAGAGAAGUGGACCAGAGAAACACACGUUGUGGUAUAUUACCUGGUA [C10G A35G]: 0.656.

The values above are taken from the RNAGym collection of RNA variant scans (doi:10.7554/elife.80360).
